Experimental data taken from publication PMC4682114.

Tests used:
Histone H1.0 (human) [1] = molecular target: Histone H1.0 (human) (UniProt P07305); test: FRET; conditions: FRET/PIFE/EMSA: 5 nM nucleosomes, 10 mM Tris-HCl pH 8.0, 130 mM NaCl, 10% glycerol, 0.005% Tween20, 10 min at 20 C, EMSA on 4% polyacrylamide, 0.3x TTE
Histone H1.0 (human) [2] = molecular target: Histone H1.0 (human) (UniProt P07305); test: PIFE; conditions: AmC6dT at position 43; unlabelled human octamer; FRET/PIFE/EMSA: 5 nM nucleosomes, 10 mM Tris-HCl pH 8.0, 130 mM NaCl, 10% glycerol, 0.005% Tween20, 10 min at 20 C; EMSA on 4% polyacrylamide, 0.3x TTE
Histone H1.2 (human) = Histone H1.2 (human) (UniProt P16403); test: FRET; conditions: AmC6dT at position 43; human octamer H2A(K119C), H2B, H3(C110A), H4; FRET/PIFE/EMSA: 5 nM nucleosomes, 10 mM Tris-HCl pH 8.0, 130 mM NaCl, 10% glycerol, 0.005% Tween20, 10 min at 20 C; EMSA on 4% polyacrylamide, 0.3x TTE
Histone H1.x (human) = Histone H1.x (human) (UniProt Q92522); test: FRET; conditions: AmC6dT at position 43; human octamer H2A(K119C), H2B, H3(C110A), H4; FRET/PIFE/EMSA: 5 nM nucleosomes, 10 mM Tris-HCl pH 8.0, 130 mM NaCl, 10% glycerol, 0.005% Tween20, 10 min at 20 C; EMSA on 4% polyacrylamide, 0.3x TTE
[3] = molecular target: Cy3 only labelled unmodified nucleosome (Cy3-L DNA, unlabelled histone octamer) (human) (UniProt P0C0S8); test: other fluorescence titration; PIFE (protein-induced fluorescence enhancement) of Cy3 on the linker DNA of Cy3 only nucleosomes; 5 nM nucleosomes, 0-300 nM H1 and/or 0-1,000 nM Gal4, 10 mM Tris-HCl pH 8.0, 130 mM NaCl, 10% glycerol, 0.005% TWEEN20, 10 min at 20 C; Hill curve, S1/2
[4] = molecular target: Cy3-Cy5 labelled H3K122ac nucleosome (Cy3-L DNA) (UniProt P0C0S8); test: other fluorescence titration; FRET efficiency between Cy3 on the DNA and Cy5 on the histone octamer (reports DNA wrapping) against H1 concentration; 5 nM nucleosomes, 0-300 nM H1, 10 mM Tris-HCl pH 8.0, 130 mM NaCl, 10% glycerol, 0.005% TWEEN20, 10 min at 20 C; Hill curve, S1/2; points of aggregated nucleosomes excluded
[5] = molecular target: Cy3-Cy5 labelled H3K56Q nucleosome (Cy3-L DNA) (human) (UniProt P0C0S8); test: as above
[6] = molecular target: Cy3-Cy5 labelled H3K56ac nucleosome (Cy3-L DNA) (UniProt P0C0S8); test: as above
[7] = molecular target: Cy3-Cy5 labelled unmodified nucleosome (Cy3-L DNA, Cy5 on H2A K119C) (human) (UniProt P0C0S8); test: as above

AAGCTTGTCGACGAATTCAGATATAAGGAGGACACTGGGACATGCATCGGCTGGAGACCGGAGGGCTGCCCTCCGGTCAATTGGTCGTAGACAGCTCTAGCACCGCTTAAACGCACGTACGCGCTGTCCCCCGCGTTTTAACCGCCAAGGGGATTACTCCCTAGTCTCCAGGCACGTGTCAGATATATACATCCTGT (double strand) [Linker-L nucleosome]
K half (Histone H1.0 (human) [1]; AmC6dT at position 43, human octamer): 12 nM

AAGCTTGTCGACGAATTCAGATATAAGGAGGACACTGGGACATGCATCGGCTGGAGACCGGAGGGCTGCCCTCCGGTCAATTGGTCGTAGACAGCTCTAGCACCGCTTAAACGCACGTACGCGCTGTCCCCCGCGTTTTAACCGCCAAGGGGATTACTCCCTAGTCTCCAGGCACGTGTCAGATATATACATCCTGTATAATGCATAGGGCAGTGAGTTGACGCTACAATCACGAATTCTGGATCCGATACGTAACGCGTCTGCAGCATGCG (double strand) [Cy3-L nucleosome, unmodified, Cy3 only]
K half (Histone H1.0 (human) [2]): 13 nM

AAGCTTGTCGACGAATTCAGATATAAGGAGGACACTGGGACATGCATCGGCTGGAGACCGGAGGGCTGCCCTCCGGTCAATTGGTCGTAGACAGCTCTAGCACCGCTTAAACGCACGTACGCGCTGTCCCCCGCGTTTTAACCGCCAAGGGGATTACTCCCTAGTCTCCAGGCACGTGTCAGATATATACATCCTGTATAATGCATAGGGCAGTGAGTTGACGCTACAATCACGAATTCTGGATCCGATACGTAACGCGTCTGCAGCATGCG (double strand) [Cy3-L nucleosome, unmodified, Cy5-H2A(K119C)]
K half (Histone H1.0 (human) [1]; AmC6dT at position 43, human octamer H2A(K119C), H2B, H3(C110A), H4): 9 nM
K half (Histone H1.2 (human)): 6 nM
K half (Histone H1.x (human)): 13 nM

CTGGAGACCGGAGGGCTGCCCTCCGGTCAATTGGTCGTAGACAGCTCTAGCACCGCTTAAACGCACGTACGCGCTGTCCCCCGCGTTTTAACCGCCAAGGGGATTACTCCCTAGTCTCCAGGCACGTGTCAGATATATACATCCTGTATAATGCATAGGGCAGTGAGTTGACGCTACAATCACGAATTCTGGATCCGATACGTAACGCGTCTGCAGCATGCG (double strand) [Linker-R nucleosome]
K half (Histone H1.0 (human) [1]; smaller FRET change, 5' AminoC6, human octamer): 11 nM

human linker histone H1.0 (from UniProt P07305 1-194) (natural protein)
S1/2 [3]: 13 nM
S1/2 [4]: 14 nM
S1/2 [5]: 15 nM
S1/2 [6]: 14 nM
S1/2 [7]: 9 nM

human linker histone H1.2, 6xHis tagged (from UniProt P16403 1-213) (natural protein)
S1/2 [7]: 6 nM

human linker histone H1.x, 6xHis tagged (from UniProt Q92522 1-213) (natural protein)
S1/2 [7]: 13 nM
